Results as given in the supplement of paper PMC9112550, “Optimization of the antimicrobial peptide Bac7 by deep mutational scanning” (BMC Biology, 2022).

System: Escherichia coli TOP10
Assay: shrunken log2 fold change of peptide-encoding DNA abundance (4.5 h post-induction vs induction); higher = less antimicrobial activity (less host growth inhibition)
Details: time post-induction: 4.5 h; library: site-saturation at positions 5, 18, 19, 20
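Also: peptides expressed intracellularly from a pBAD plasmid library in pooled LB shake-flask culture, induced with 0.3% L-arabinose, DNA abundance read by NGS, three biological replicates, DESeq2 with apeglm shrinkage.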

Sequence | shrunken log2 fold change
RRIRPRPPRLPRPRPRPGNYPRP | -0.36
RRIRARPPRLPRPRPRPYIIPRP | -0.445
RRIRARPPRLPRPRPRPHLCPRP | 0.202
RRIRRRPPRLPRPRPRPAYVPRP | 0.0253
RRIRTRPPRLPRPRPRPPLGPRP | 0.328
RRIRHRPPRLPRPRPRPTKSPRP | -0.0287
RRIRNRPPRLPRPRPRPCGWPRP | 0.0822
RRIRARPPRLPRPRPRPCSIPRP | -0.092
RRIRMRPPRLPRPRPRPWAVPRP | 0.396
RRIRNRPPRLPRPRPRPPKLPRP | 0.0789
RRIRWRPPRLPRPRPRPLGCPRP | 0.438
RRIRYRPPRLPRPRPRPLQNPRP | 0.0956
RRIRFRPPRLPRPRPRPYWTPRP | -0.651
RRIRSRPPRLPRPRPRPHSMPRP | -0.521
RRIRDRPPRLPRPRPRPQFVPRP | -0.0477
RRIRERPPRLPRPRPRPVVVPRP | -0.112
RRIRKRPPRLPRPRPRPCYMPRP | -0.195
RRIRKRPPRLPRPRPRPFRHPRP | -0.0849
RRIRIRPPRLPRPRPRPGHEPRP | 0.018
RRIRHRPPRLPRPRPRPWFYPRP | -0.244
RRIRGRPPRLPRPRPRPQAQPRP | 1.02

Sequence | shrunken log2 fold change
RRIRGRPPRLPRPRPRPRMPPRP | 0.605
RRIRRRPPRLPRPRPRPWLWPRP | 0.0836
RRIRLRPPRLPRPRPRPYAYPRP | -0.0124
RRIRERPPRLPRPRPRPWCRPRP | -0.126
RRIRIRPPRLPRPRPRPSIEPRP | -0.407
RRIRMRPPRLPRPRPRPWLYPRP | -0.0206
RRIRYRPPRLPRPRPRPVCPPRP | 0.101
RRIRYRPPRLPRPRPRPEEPPRP | 0.115
RRIRRRPPRLPRPRPRPDLCPRP | 0.00591
RRIRVRPPRLPRPRPRPDIRPRP | -0.179
RRIRDRPPRLPRPRPRPPMKPRP | 0.131
RRIRWRPPRLPRPRPRPGCRPRP | 0.417
RRIRKRPPRLPRPRPRPPWGPRP | 0.501
RRIRSRPPRLPRPRPRPIKWPRP | -0.197
RRIRERPPRLPRPRPRPGCIPRP | -1.12
RRIRHRPPRLPRPRPRPLNAPRP | -0.0576
RRIRDRPPRLPRPRPRPKKLPRP | -0.0595
RRIRRRPPRLPRPRPRPLPWPRP | 0.057
RRIRWRPPRLPRPRPRPAGNPRP | 0.396
RRIRQRPPRLPRPRPRPEPYPRP | 0.0808
RRIRVRPPRLPRPRPRPRPEPRP | 0.609

Sequence | shrunken log2 fold change
RRIRDRPPRLPRPRPRPSTYPRP | -0.273
RRIRQRPPRLPRPRPRPFDMPRP | -0.123
RRIRTRPPRLPRPRPRPFLFPRP | -0.303
RRIRSRPPRLPRPRPRPWSEPRP | -0.196
RRIRQRPPRLPRPRPRPINEPRP | 0.0162
RRIRFRPPRLPRPRPRPVQWPRP | 0.184
RRIRDRPPRLPRPRPRPGWPPRP | 0.514
RRIRGRPPRLPRPRPRPFQMPRP | 0.0308
RRIRLRPPRLPRPRPRPPPGPRP | 1.29
RRIRVRPPRLPRPRPRPIGFPRP | 0.187
RRIRCRPPRLPRPRPRPHQPPRP | 0.0495
RRIRVRPPRLPRPRPRPRTMPRP | 0.0485
RRIRYRPPRLPRPRPRPYQEPRP | -0.00233
RRIRGRPPRLPRPRPRPKHYPRP | 0.0538
RRIRQRPPRLPRPRPRPWFMPRP | -1.08
RRIRHRPPRLPRPRPRPEPIPRP | 0.021
RRIRFRPPRLPRPRPRPHAAPRP | 0.062
RRIRGRPPRLPRPRPRPRGAPRP | 1.66
RRIRQRPPRLPRPRPRPYRDPRP | -0.204
RRIRKRPPRLPRPRPRPAIWPRP | 0.463
